Where two headings read alike, the source gives them in different places.
Assays:
Assay in all cases: cell-based or functional assay
[1] = biological target: T1, BMP9 (UniProt Q9UK05)
T1 sequence (looked up): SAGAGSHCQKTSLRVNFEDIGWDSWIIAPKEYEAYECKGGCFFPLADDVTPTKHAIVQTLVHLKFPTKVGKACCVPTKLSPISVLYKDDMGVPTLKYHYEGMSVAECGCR

[2] = biological target: T2, GDF11 (UniProt O95390)
T2 sequence (looked up): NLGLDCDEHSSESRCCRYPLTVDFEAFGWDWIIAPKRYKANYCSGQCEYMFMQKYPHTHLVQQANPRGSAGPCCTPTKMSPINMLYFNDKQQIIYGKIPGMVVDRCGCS

[3] = biological target: BMP9 (UniProt Q9UK05); remark: listed apart in the source
[4] = biological target: GDF11 (UniProt O95390); remark: listed apart in the source
[5] = biological target: activin A (UniProt P08476)
[6] = biological target: T3, activin A (UniProt P08476); remark: listed apart in the source
T3 sequence (looked up): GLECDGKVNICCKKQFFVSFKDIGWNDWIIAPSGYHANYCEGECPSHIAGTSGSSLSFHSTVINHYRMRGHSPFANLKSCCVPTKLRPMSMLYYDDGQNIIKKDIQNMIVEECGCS

[7] = biological target: T4, BMP10 (UniProt O95393)
T4 sequence (looked up): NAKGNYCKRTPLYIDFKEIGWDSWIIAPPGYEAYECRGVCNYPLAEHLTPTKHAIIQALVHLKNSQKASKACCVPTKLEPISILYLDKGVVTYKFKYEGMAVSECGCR

[8] = biological target: T1, BMP9; remark: listed apart in the source
[9] = biological target: T2, GDF11; remark: listed apart in the source
[10] = biological target: T5, GDF8 (UniProt O14793)
T5 sequence (looked up): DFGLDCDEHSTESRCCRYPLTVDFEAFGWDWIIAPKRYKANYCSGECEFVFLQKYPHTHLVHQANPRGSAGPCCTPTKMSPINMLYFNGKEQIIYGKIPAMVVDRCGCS

[11] = biological target: T3, activin A; remark: listed apart in the source
[12] = biological target: T6, activin B (UniProt P09529)
T6 sequence (looked up): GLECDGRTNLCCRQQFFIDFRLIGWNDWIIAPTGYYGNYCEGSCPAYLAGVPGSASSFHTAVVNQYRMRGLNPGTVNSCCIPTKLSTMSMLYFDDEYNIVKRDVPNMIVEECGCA

[13] = biological target: BMP10 (UniProt O95393); remark: listed apart in the source
[14] = biological target: GDF11 (UniProt O95390); remark: listed apart in the source
[15] = biological target: GDF8 (UniProt O14793); remark: listed apart in the source
[16] = biological target: activin A (UniProt P08476); remark: listed apart in the source
[17] = biological target: activin B (UniProt P09529); remark: listed apart in the source

Sequence of ActRIIB(20-134)-G1Fc (Fc fusion) (chain): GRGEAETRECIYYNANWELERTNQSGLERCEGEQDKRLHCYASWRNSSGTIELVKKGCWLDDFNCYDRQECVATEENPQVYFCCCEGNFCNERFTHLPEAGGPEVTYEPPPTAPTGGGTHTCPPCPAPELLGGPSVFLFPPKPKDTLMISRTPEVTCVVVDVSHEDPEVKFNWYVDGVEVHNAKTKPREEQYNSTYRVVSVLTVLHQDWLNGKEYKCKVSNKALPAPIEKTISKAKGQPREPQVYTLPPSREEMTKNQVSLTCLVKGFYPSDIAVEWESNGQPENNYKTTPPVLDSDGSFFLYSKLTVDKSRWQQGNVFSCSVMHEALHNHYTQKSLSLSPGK

| Substance | IC50, A204 CAGA12 reporter gene assay [1] | IC50, A204 CAGA12 reporter gene assay [2] | IC50, A204 CAGA12 reporter gene assay [6] | further results |
| --- | --- | --- | --- | --- |
| ActRIIB(F82I)-G1Fc (Fc fusion) | – | – | – | IC50, A204 CAGA12 reporter gene assay [3]: 0.277 µg/mL; IC50, A204 CAGA12 reporter gene assay [4]: 0.009 µg/mL; IC50, A204 CAGA12 reporter gene assay [5]: 0.011 µg/mL |
| variant ActRIIB-Fc polypeptide A24N (Fc fusion) | 0.409 µg/mL | 0.099 µg/mL | 0.128 µg/mL | – |
| variant ActRIIB-Fc polypeptide F82W (Fc fusion) | – | 0.276 µg/mL | – | – |
| variant ActRIIB-Fc polypeptide R40A (Fc fusion) | 1.21 µg/mL | 0.591 µg/mL | – | – |
| ActRIIB(K55A)-G1Fc (Fc fusion) | – | – | – | IC50, A204 CAGA12 reporter gene assay [3]: 0.122 µg/mL; IC50, A204 CAGA12 reporter gene assay [4]: 0.011 µg/mL; IC50, A204 CAGA12 reporter gene assay [5]: 0.015 µg/mL |
| variant ActRIIB-Fc polypeptide L79K (Fc fusion) | – | 0.477 µg/mL | – | – |
| ActRIIB(F82K)-G1Fc (Fc fusion) | – | – | – | IC50, A204 CAGA12 reporter gene assay [3]: 5 µg/mL; IC50, A204 CAGA12 reporter gene assay [4]: 0.015 µg/mL; IC50, A204 CAGA12 reporter gene assay [5]: 0.01 µg/mL |
| variant ActRIIB-Fc polypeptide E50K (Fc fusion) | 0.721 µg/mL | 0.18 µg/mL | 0.132 µg/mL | – |
| ActRIIB(K55E)-G1Fc (Fc fusion) | – | – | – | IC50, A204 CAGA12 reporter gene assay [3]: 0.29 µg/mL; IC50, A204 CAGA12 reporter gene assay [4]: 0.014 µg/mL; IC50, A204 CAGA12 reporter gene assay [5]: 0.019 µg/mL |
| ActRIIB(F82T)-G1Fc (Fc fusion) | – | – | – | IC50, A204 CAGA12 reporter gene assay [13]: 0.07 nM; IC50, A204 CAGA12 reporter gene assay [14]: 0.27 nM; IC50, A204 CAGA12 reporter gene assay [15]: 2.17 nM; IC50, A204 CAGA12 reporter gene assay [16]: 0.1 nM; IC50, A204 CAGA12 reporter gene assay [17]: 0.09 nM |
| variant ActRIIB-Fc polypeptide K55R (Fc fusion) | 0.777 µg/mL | 0.318 µg/mL | 0.206 µg/mL | – |
| variant ActRIIB-Fc polypeptide Y60K (Fc fusion) | – | 0.414 µg/mL | – | – |

Continued, in another order:

| IC50, A204 CAGA12 reporter gene assay [1] | IC50, A204 CAGA12 reporter gene assay [2] | IC50, A204 CAGA12 reporter gene assay [6] | Substance | further results |
| --- | --- | --- | --- | --- |
| 40 µg/mL | 0.389 µg/mL | – | variant ActRIIB-Fc polypeptide F82W/N83A (Fc fusion) | – |
| 10 µg/mL | 0.296 µg/mL | 0.762 µg/mL | variant ActRIIB-Fc polypeptide E52K (Fc fusion) | – |
| – | 0.544 µg/mL | – | variant ActRIIB-Fc polypeptide Y60P (Fc fusion) | – |
| 3 µg/mL | 0.638 µg/mL | 0.756 µg/mL | variant ActRIIB-Fc polypeptide E50P (Fc fusion) | – |
| 5.5 µg/mL | 0.365 µg/mL | 0.396 µg/mL | variant ActRIIB-Fc polypeptide K55D (Fc fusion) | – |
| 0.031 µg/mL | 0.009 µg/mL | 0.008 µg/mL | ActRIIB(20-134)-G1Fc (Fc fusion) | IC50, A204 CAGA12 reporter gene assay [7]: 0.036 nM; IC50, A204 CAGA12 reporter gene assay [8]: 1.82 nM; IC50, A204 CAGA12 reporter gene assay [9]: 0.12 nM; IC50, A204 CAGA12 reporter gene assay [10]: 0.95 nM; IC50, A204 CAGA12 reporter gene assay [11]: 0.05 nM; IC50, A204 CAGA12 reporter gene assay [12]: 0.067 nM |
| – | 0.234 µg/mL | – | variant ActRIIB-Fc polypeptide L79R (Fc fusion) | – |
| 0.165 µg/mL | 0.045 µg/mL | – | variant ActRIIB-Fc polypeptide K74R (Fc fusion) | – |
| 0.359 µg/mL | 0.071 µg/mL | 0.198 µg/mL | variant ActRIIB-Fc polypeptide E52A (Fc fusion) | – |
